The text below walks through data of patent US20230235013A1 (MABSOLVE, published 2023).

Assay [1] concerns the target T1, human FcγRIIA (R131, Sino Biological Cat. No. 10374-H08H) (human, UniProt P12318 34-218).
T1 construct: bought; also called human FcγRIIa R131 allele; FcγRII allele R131
T1 sequence (looked up): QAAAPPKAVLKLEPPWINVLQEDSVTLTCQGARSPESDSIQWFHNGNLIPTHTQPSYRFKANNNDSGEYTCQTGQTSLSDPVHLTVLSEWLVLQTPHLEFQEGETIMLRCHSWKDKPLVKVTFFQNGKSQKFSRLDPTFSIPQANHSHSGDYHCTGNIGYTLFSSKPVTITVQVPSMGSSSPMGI
In words: SPR, captured His-receptor.

Assay [2] addresses T2, mouse FcγRI (Sino Biological Cat. No. 50086-M08H) (mouse, UniProt P26151 25-297).
T2 construct: bought
T2 sequence (looked up): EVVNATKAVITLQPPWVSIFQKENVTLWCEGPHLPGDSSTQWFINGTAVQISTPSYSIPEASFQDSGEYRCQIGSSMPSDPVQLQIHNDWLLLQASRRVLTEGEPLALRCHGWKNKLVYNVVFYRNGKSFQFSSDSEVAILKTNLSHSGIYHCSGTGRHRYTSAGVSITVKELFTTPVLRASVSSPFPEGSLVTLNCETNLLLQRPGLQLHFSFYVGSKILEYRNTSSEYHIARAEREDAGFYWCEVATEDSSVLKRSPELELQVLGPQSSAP
Description: SPR, captured His-receptor.

Assay [3] addresses T3, human FcγRIIIB (NA2 allotype, Sino Biological Cat. No. 11046-H08H) (human, UniProt O75015 17-200).
T3 construct: bought; also called human FcγRIIIb NA2 allele
In words: SPR, captured His-receptor. A general note: Surface plasmon resonance follows binding to a sensor surface in real time, without labels.

The target in assay [4] is T4, human FcγRIIB (Sino Biological Cat. No. 10259-H08H) (human, UniProt P31994 43-217).
T4 construct: bought
T4 sequence (looked up): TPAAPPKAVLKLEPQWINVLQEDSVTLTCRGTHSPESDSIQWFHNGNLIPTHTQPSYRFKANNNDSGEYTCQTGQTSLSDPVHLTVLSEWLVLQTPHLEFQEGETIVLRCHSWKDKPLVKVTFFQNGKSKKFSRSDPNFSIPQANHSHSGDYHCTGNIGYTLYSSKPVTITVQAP
Description: SPR, captured His-receptor.

In assay [5] the target is T5, Histidine-tagged recombinant human FcγRI (CD64) (human, UniProt P12314 16-288).
T5 construct: bought; also called Sino Biological Cat. No. 12056-H08H
In words: SPR, captured His-receptor.

Assay [6] concerns the target T6, CD3D/CD3E heterodimer (Sino Biologicals Cat. No. CT038-H2508H) (human, UniProt P04234 22-105; P07766 23-126).
T6 construct: bought; also called CD3 antigen; human CD3
In words: ELISA, antigen coated, antibody 5 µg/mL. A general note: An ELISA detects its analyte on a solid surface through an enzyme-linked reagent.

Assay [7] addresses T7, human FcRn (R&D Systems Cat. No. 8639-Fc) (human, UniProt P55899 24-297; P61769 21-119). In words: SPR, FcRn captured; Expt 1.
Assay [8] concerns the target T8, C-terminus biotinylated human FcRn attached to Streptavidin-SmBiT (FcRn-SAv-SmBiT) (human, UniProt P55899 24-297; P61769 21-119, limits assumed, C-terminus biotinylated (AviTag), attached to Streptavidin-SmBiT).
T8 construct: Kit reagent; also called hFcRn-AviTag
Description: NanoBiT FcRn competition immunoassay, competitor Tracer-LgBiT human IgG, pH 6.0.

Assay [9] addresses T9, Human C1q (Sigma Cat. No. 20476), HRP-labelled (human, UniProt P02745 23-245; P02746 28-253; P02747 29-245).
T9 construct: Coupled to horse-radish peroxidase with Lightning-Link kit; also called HRP-labelled C1q
Description: ELISA, antibody coated, HRP-C1q; Expt 1, buffer alone 0.061.

In assay [10] the target is T9, Human C1q (Sigma Cat. No. 20476), …. Description: ELISA, antibody coated, HRP-C1q; Expt 2, buffer alone 0.091.
The target of assay [11] is T7, human FcRn (R&D Systems Cat. No. …). In words: SPR, FcRn captured; Expt 3.
Assay [12] addresses T9, Human C1q (Sigma Cat. No. 20476), …. In words: ELISA, antibody coated, HRP-C1q; Expt 2, buffer alone 0.051.
The target of assay [13] is T7, human FcRn (R&D Systems Cat. No. …). In words: SPR, FcRn captured; Mean.
The target of assay [14] is T9, Human C1q (Sigma Cat. No. 20476), …. Description: ELISA, antibody coated, HRP-C1q; Expt 3, buffer alone 0.102.
The target of assay [15] is T10, mouse FcRn (Sino Biological Cat. No. CT029-M08H) (mouse, UniProt Q61559 22-297; P01887 21-119).
T10 construct: Bought protein, captured on an anti-histidine chip
T10 sequence (looked up): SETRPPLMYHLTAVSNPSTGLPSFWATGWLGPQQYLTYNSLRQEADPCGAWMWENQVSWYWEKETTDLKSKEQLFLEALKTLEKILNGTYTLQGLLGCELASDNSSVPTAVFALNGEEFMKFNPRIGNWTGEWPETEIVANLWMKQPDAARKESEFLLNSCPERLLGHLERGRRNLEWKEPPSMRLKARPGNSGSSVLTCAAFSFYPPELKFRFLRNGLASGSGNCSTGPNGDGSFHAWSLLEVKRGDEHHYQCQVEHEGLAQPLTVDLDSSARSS
T10 sequence (b2m, looked up): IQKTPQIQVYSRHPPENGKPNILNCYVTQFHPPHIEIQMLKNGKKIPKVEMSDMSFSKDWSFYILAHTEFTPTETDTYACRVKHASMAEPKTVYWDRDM
In words: SPR, FcRn captured via anti-His, pH 6.0.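 Also: SPR binding signal relative to the reference cell, corrected by subtracting the response of a blank sample of running buffer alone.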

Assay [16] deals with T11, cynomolgus monkey FcRn (Sino Biological Cat. No. CT031-C08H) (cynomolgus monkey, UniProt Q8SPV9 24-297; Q8SPW0 21-119).
T11 construct: Bought protein, captured on an anti-histidine chip; also called cynomolgus FcRn
Description: SPR, FcRn captured via anti-His, pH 6.0.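 Also: SPR binding signal relative to the reference cell, corrected by subtracting the response of a blank sample of running buffer alone.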

Assay [17] deals with T7, human FcRn (R&D Systems Cat. No. …). In words: SPR, FcRn captured via anti-His, pH 6.0.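 Also: SPR binding signal relative to the reference cell, corrected by subtracting the response of a blank sample of running buffer alone.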
Assay [18] deals with T9, Human C1q (Sigma Cat. No. 20476), …. In words: ELISA, antibody coated, HRP-C1q; Expt 1, buffer alone 0.053.
Assay [19] addresses T7, human FcRn (R&D Systems Cat. No. …). Description: SPR, FcRn captured; Expt 2.

B1: anti-CD3 human IgG1 L234S/L235T/G236R (antibody)
heavy: not shown
light: QIVLTQSPAIMSASPGEKVTMTCSASSSVSYMNWYQQKSGTSPKRWIYDTSKLASGVPAHFRGSGSGTSYSLTISGMEAEDAATYYCQQWSSNPFTFGSGTKLEIKRTVAAPSVFIFPPSDEQLKSGTASVVCLLNNFYPREAKVQWKVDNALQSGNSQESVTEQDSKDSTYSLSSTLTLSKADYEKHKVYACEVTHQGLSSPVTKSFNRGEC
notes: also called 3-52; copies: 2 + 2
Consider B1, for which the binding result in assay [1], in assay [2], in assay [3], in [4] and in assay [5] was “no binding (tested: 100 µg/mL)” throughout. The “Mean Absorbance” value in assay [6] was found to be 1.38 absorbance.

B2: anti-CD3 human IgG1 L234A/L235A/P329G (LALAPG reference) (antibody)
heavy: not shown
light: B1 light
notes: also called 3-66; copies: 2 + 2
Regarding B2, the binding result in assay [5] is “binds”. The “Mean Absorbance” value in assay [6] was determined as 1.13 absorbance.

B3: anti-CD3 human IgG1 N297Q (aglycosyl) (antibody)
heavy: not shown
light: B1 light
notes: also called 3-67; copies: 2 + 2
For B3, the binding result in assay [2] and in assay [5] was “binds” in each case. Moreover, the “Mean Absorbance” value in assay [6] worked out at 0.749 absorbance.

B4: anti-CD3 human IgG1 L234A/L235A (LALA) (antibody)
heavy: not shown
light: B1 light
notes: also called 3-65; copies: 2 + 2
As for B4, the binding result in assay [1] and in assay [5] was “binds” in each case. In addition, in assay [6], the “Mean Absorbance” value worked out at 1.07 absorbance.

B5: anti-CD20 (rituximab) human IgG1 wild-type reference (antibody)
heavy: not shown
light: QIVLSQSPAILSASPGEKVTMTCRASSSVSYIHWFQQKPGSSPKPWIYATSNLASGVPVRFSGSGSGTSYSLTISRVEAEDAATYYCQQWTSNPPTFGGGTKLEIKRTVAAPSVFIFPPSDEQLKSGTASVVCLLNNFYPREAKVQWKVDNALQSGNSQESVTEQDSKDSTYSLSSTLTLSKADYEKHKVYACEVTHQGLSSPVTKSFNRGEC
notes: 2-1 and 10.0 are separate preparations of the same antibody; also called 2-1; 10.0; copies: 2 + 2
For B5, the “Corrected and normalised response (% of wild-type reference)” value in assay [7], in [11], in assay [13] and in assay [19] was 100 % of wild-type reference throughout. Further, the “Mean binding activity (% of wild-type reference)” value in [8] was 100 % of wild-type reference. Also, the “Mean Absorbance” value is 2.63 absorbance (450 nm) in assay [9]; 2.21 absorbance (450 nm) in assay [10]; 1.33 absorbance (450 nm) in [12]; 1.88 absorbance (450 nm) in assay [14]; 1.83 absorbance (450 nm) in assay [18]. The “Corrected response (RU)” value in assay [15] was 178 RU; in [16], 1320 RU; in assay [17], 582 RU.

B6: anti-CD20 (rituximab) human IgG1 L234T/L235T/G236R (antibody)
heavy: QVQLQQPGAELVKPGASVKMSCKASGYTFTSYNMHWVKQTPGRGLEWIGAIYPGNGDTSYNQKFKGKATLTADKSSSTAYMQLSSLTSEDSAVYYCARSTYYGGDWYFNVWGAGTTVTVSSASTKGPSVFPLAPSSKSTSGGTAALGCLVKDYFPEPVTVSWNSGALTSGVHTFPAVLQSSGLYSLSSVVTVPSSSLGTQTYICNVNHKPSNTKVDKKVEPKSCDKTHTCPPCPAPETTRGPSVFLFPPKPKDTLMISRTPEVTCVVVDVSHEDPEVKFNWYVDGVEVHNAKTKPREEQYNSTYRVVSVLTVLHQDWLNGKEYKCKVSNKALPAPIEKTISKAKGQPREPQVYTLPPSRDELTKNQVSLTCLVKGFYPSDIAVEWESNGQPENNYKTTPPVLDSDGSFFLYSKLTVDKSRWQQGNVFSCSVMHEALHNHYTQKSLSLSPGK
light: B5 light
notes: EU numbering; also called 2-63; 1-165; copies: 2 + 2
As for B6, the “Corrected and normalised response (% of wild-type reference)” value in [7] is 96 % of wild-type reference; in assay [11] it was 88.1 % of wild-type reference; in assay [13] it was 93 % of wild-type reference; in [19] it was 95.1 % of wild-type reference. Also, in assay [8], the “Mean binding activity (% of wild-type reference)” value was 150 % of wild-type reference. Further, the “Mean Absorbance” value in [9] is 0.068 absorbance (450 nm); in assay [10], 0.077 absorbance (450 nm); in assay [14], 0.095 absorbance (450 nm).

B7: anti-CD20 (rituximab) human IgG1 N297Q (aglycosyl) (antibody)
heavy: not shown
light: B5 light
notes: EU numbering; also called 2-67; copies: 2 + 2
Consider B7, for which the “Corrected and normalised response (% of wild-type reference)” value in [7] is 78.4 % of wild-type reference; in assay [11] it was 76.6 % of wild-type reference; in assay [13] it was 77.9 % of wild-type reference; in [19], 78.7 % of wild-type reference. In [8], the “Mean binding activity (% of wild-type reference)” value is 34.1 % of wild-type reference. Moreover, the “Mean Absorbance” value in assay [10] is 0.076 absorbance (450 nm); in [14] it was 0.083 absorbance (450 nm). Moreover, the “Corrected response (RU)” value in assay [15] came to 163 RU; in assay [16] it was 1010 RU; in assay [17], 421 RU.

B8: anti-CD20 (rituximab) human IgG1 L234A/L235A (LALA) (antibody)
heavy: not shown
light: B5 light
notes: EU numbering; also called 2-65; 10.16; copies: 2 + 2
With B8, the “Corrected and normalised response (% of wild-type reference)” value in [7] was 92.8 % of wild-type reference; in assay [11], 92.9 % of wild-type reference; in assay [13], 93.3 % of wild-type reference; in assay [19], 94.2 % of wild-type reference. The “Mean binding activity (% of wild-type reference)” value in assay [8] was 70.1 % of wild-type reference. The “Mean Absorbance” value in [10] is 0.078 absorbance (450 nm); in assay [14], 0.08 absorbance (450 nm). The “Corrected response (RU)” value in assay [15] turned out to be 190 RU; in [16], 1180 RU; in assay [17] it was 505 RU.
